Data set [1] concerns the target T1, RC3H2 RNA-binding region (HEPN+ROQ), wild type (Homo sapiens, UniProt Q9HBD1 87-404).
T1 sequence: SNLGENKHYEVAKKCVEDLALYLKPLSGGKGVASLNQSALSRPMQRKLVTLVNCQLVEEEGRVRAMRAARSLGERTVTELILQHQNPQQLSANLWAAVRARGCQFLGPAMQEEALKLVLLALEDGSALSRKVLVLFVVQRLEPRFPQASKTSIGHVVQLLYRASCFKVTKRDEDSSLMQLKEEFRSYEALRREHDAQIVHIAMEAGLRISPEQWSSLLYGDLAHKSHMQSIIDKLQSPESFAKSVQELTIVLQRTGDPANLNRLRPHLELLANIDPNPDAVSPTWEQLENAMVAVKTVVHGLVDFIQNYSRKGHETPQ
Briefly: analytical SEC; ITC: 20 mM Tris-HCl pH 8.0, 150 mM NaCl, 1 mM TCEP, 25 C; 200-500 uM RNA injected into 15-30 uM protein, one-site model. The note with it: protein: recombinant.

Data set [2] has as its target T1, RC3H2 RNA-binding region (HEPN+ROQ), …. Briefly: ITC; ITC: 20 mM Tris-HCl pH 8.0, 150 mM NaCl, 1 mM TCEP, 25 C; 200-500 uM RNA injected into 15-30 uM protein, one-site model. The note with it: protein: recombinant, tags: His6-tag (pET28-MHL N-terminal TEV-cleavable, or pNIC-CH C-terminal uncleavable), removed by TEV where applicable. On the technique in general: Isothermal titration calorimetry measures the heat released or taken up as one component is titrated into another.

Data set [3] addresses T2, RC3H2 stem-loop triple mutant (Homo sapiens, UniProt Q9HBD1 87-404, Q244A;Y247A;R248E).
T2 sequence: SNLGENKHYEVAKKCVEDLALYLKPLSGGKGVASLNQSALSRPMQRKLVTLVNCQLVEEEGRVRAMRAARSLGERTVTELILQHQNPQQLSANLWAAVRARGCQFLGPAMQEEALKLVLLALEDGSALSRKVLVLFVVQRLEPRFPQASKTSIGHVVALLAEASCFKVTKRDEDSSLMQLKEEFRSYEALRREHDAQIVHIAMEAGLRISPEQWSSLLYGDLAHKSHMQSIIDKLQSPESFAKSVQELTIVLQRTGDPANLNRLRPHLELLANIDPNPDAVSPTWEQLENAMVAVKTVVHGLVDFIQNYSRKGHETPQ
Kind of data set: analytical SEC; 47.3 kDa complex; ITC: 20 mM Tris-HCl pH 8.0, 150 mM NaCl, 1 mM TCEP, 25 C; 200-500 uM RNA injected into 15-30 uM protein, one-site model. The settings on record: protein: recombinant; tags: His6-tag, removed by TEV where applicable; mixture of hairpin and self-duplex in solution.

Data set [4] has as its target T3, RC3H2 quaternary mutant (triple mutant + phosphomimic) (Homo sapiens, UniProt Q9HBD1 87-404, Q244A;Y247A;R248E;S323E).
T3 sequence: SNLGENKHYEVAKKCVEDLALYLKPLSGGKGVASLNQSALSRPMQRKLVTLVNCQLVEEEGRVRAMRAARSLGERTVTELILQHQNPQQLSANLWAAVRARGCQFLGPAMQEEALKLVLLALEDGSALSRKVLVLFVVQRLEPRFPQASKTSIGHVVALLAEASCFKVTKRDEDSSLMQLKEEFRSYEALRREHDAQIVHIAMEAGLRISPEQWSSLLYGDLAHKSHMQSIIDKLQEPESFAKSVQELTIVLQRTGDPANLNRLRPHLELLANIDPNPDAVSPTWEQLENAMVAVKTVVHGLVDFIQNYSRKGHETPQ
Kind of data set: ITC; attributed to duplex form of Tnf23; ITC: 20 mM Tris-HCl pH 8.0, 150 mM NaCl, 1 mM TCEP, 25 C; 200-500 uM RNA injected into 15-30 uM protein, one-site model. The settings on record: protein: recombinant; tags: His6-tag, removed by TEV where applicable; mixture of hairpin and self-duplex in solution.

The target in data set [5] is T1, RC3H2 RNA-binding region (HEPN+ROQ), …. Briefly: crystal structure; duplex contacts HEPN and ROQ; same ASU also has stem-loop RNA; 2.5 A; ITC: 20 mM Tris-HCl pH 8.0, 150 mM NaCl, 1 mM TCEP, 25 C; 200-500 uM RNA injected into 15-30 uM protein, one-site model. The note with it: protein: recombinant; tags: His6-tag (pET28-MHL N-terminal TEV-cleavable, or pNIC-CH C-terminal uncleavable); removed by TEV where applicable; antiparallel self-duplex, 2 copies of strand; 10 Watson-Crick bp plus central UGU with U7-U9 wobble pairs.

Data set [6] concerns the target T2, RC3H2 stem-loop triple mutant. Briefly: ITC; ITC: 20 mM Tris-HCl pH 8.0, 150 mM NaCl, 1 mM TCEP, 25 C; 200-500 uM RNA injected into 15-30 uM protein, one-site model. The settings on record: protein: recombinant; tags: His6-tag, removed by TEV where applicable; hairpin; mainly stem-loop in solution.
Where [7] appears, read: tags: His6-tag (pET28-MHL N-terminal TEV-cleavable, or pNIC-CH C-terminal uncleavable), removed by TEV where applicable, hairpin and/or self-duplex.

B1: dsICOS (called 24-bp; 23 nt printed) (dsRNA)
RNA 1: UCUUCAGUCUAGACAGUUCGCUU
RNA 2: AAGCGAACUGUCUAGACUGAAGA
Turning to B1, in data set [1] (tags: His6-tag (pET28-MHL N-terminal TEV-cleavable, or pNIC-CH C-terminal uncleavable; removed by TEV where applicable; ends not further stated)), the binding result is given as “binds”.
Consider ACAUGUUUUCUGUGAAAACGGAG (structured_RNA) [Tnf23 CDE RNA, 23-nt], for which the Kd in data set [2] (mixture of hairpin and self-duplex in solution) amounted to 144 ± 50 nM; in data set [4], 590 nM. The binding result in data set [3] is recorded as “binds”.
As for UUAAUAACUUCUGUGAAGUUGUUUAC (structured_RNA) [Roquin2 CDE RNA (called 27-nt; 26 nt printed)], the binding result in data set [1] (setting [7]) was “binds”.

B2: Ier3 CDE RNA duplex (crystal) (dsRNA)
RNA 1: AUGUUCUGUGAACAC
RNA 2: AUGUUCUGUGAACAC
For the molecule B2, the binding result in data set [5] is reported as “binds”.
For AUAACUUCUGUGAAGUUGC (structured_RNA) [Roquin CDE RNA, 19-nt], the binding result in data set [1] (setting [7]) is recorded as “binds”.
AUGUUCUGUGAACAC (structured_RNA) [Ier3 CDE RNA, 15-nt]: the Kd in data set [2] (hairpin, mainly stem-loop in solution) turned out to be 356 ± 86 nM. Further, the binding result in data set [6] is given as “no binding”.

What is called Kd is the concentration at which binding is half-saturated.

The record behind these values is paper PMC4614863, “New Insights into the RNA-Binding and E3 Ubiquitin Ligase Activities of Roquins”.
